Data on eight molecules can be found in publication PMC4119751 (Biochemistry, 2013).

Like-named read-outs stand apart in the source and are kept apart here. Bridge positions count the residues as written; N and C are the ends. Ends that are not written are not given here.

Test [1] concerns the target Env of HIV-1 SF162 on pseudovirus (HIV-1 strain SF162).
For test [2], the target named is V3_(MNCYCLIC) 14mer peptide … (HIV-1 strain MN). Put plainly: ITC.
The next test concerns wild type Fv 447–52D. The experiment in a line: ITC, V3 peptide variants titrated into wild type Fv 447–52D. The format is binding, human. To be noted: linear and cyclic V3 with wild type Fv, ITC 25 °C. A general note: ITC needs no label: the signal is the heat of the interaction.
The target of test [3] is T1, 14-mer V3 peptide KRIHIGPGRAFYTT (MN sequence) (HIV-1 strain MN, V3 crown (peptide)).
T1 chain: KRIHIGPGRAFYTT
Put plainly: ITC.

Test [4] has as its target T1, 14-mer V3 peptide KRIHIGPGRAFYTT (MN …). Put plainly: ITC.
Test [5] addresses T2, V3 peptide with Arg^315Gln mutation KRIHIGPGQAFYTT (HIV-1 strain MN, V3 crown, Arg315Gln …, point mutant).
T2 chain: KRIHIGPGQAFYTT
The experiment in a line: ITC.

Test [6] addresses T1, 14-mer V3 peptide KRIHIGPGRAFYTT (MN …). The experiment in a line: ITC.
Another test has as its system SF162 pseudovirus. The experiment in a line: TZM-bl neutralization assay against SF162 pseudovirus. The format is cell-based, HIV-1. The conditions noted are these: Fv mutant vs wild type Fv.

As a reminder, the Kd is a measure of binding affinity in units of concentration. A higher Kd goes with lower affinity. Fv 447–52D wild type showed an IC50 of neutralisation of SF162 pseudovirus, TZM-bl cells (luciferase) in test [1] of 19 µM. This molecule showed a dissociation constant Kd in test [2] of 0.016 µM.

Take “CRIHIGPGRAFYTC (disulfide 1-14 (inferred)) [V3 Cyclic]”: in the test on wild type Fv 447–52D, the “effect of cyclization on affinity (in words)” value is on record as “cyclization of the V3 crown did not affect much of its interaction with mAb 447–52D”.

B1: Fv 447–52D Tyr^H100JThr (other, human)
VH: EVQLVESGGGLVKPGGSLRLTCVASGFTFSDVWLNWVRQAPGKGLEWVGRIKSRTDGGTTDYAASVKGRFTISRDDSKNTLYLQMNSLKTEDTAVYSCTTDGFIMIRGVSEDYYYTYMDVWGKGTTVTVSS
VL: QSVLTQPPSVSAAPGQKVTISCSGSSSNIGNNYVLWYQQFPGTAPKLLIYGNNKRPSGIPDRFSGSKSGTSATLGITGLQTGDEADYFCATWDSGLSADWVFGGGTKLTVL
B1: the other in test [3] amounted to 3.3 kcal/mol. Further, the IC50 of neutralisation of SF162 pseudovirus, TZM-bl cells (luciferase) in test [1] worked out at 23 µM. This molecule showed an equilibrium dissociation constant (Kd) in test [4] of 1.3 µM.

B2: Fv 447–52D Trp^H33Ala (other, human)
VH: EVQLVESGGGLVKPGGSLRLTCVASGFTFSDVALNWVRQAPGKGLEWVGRIKSRTDGGTTDYAASVKGRFTISRDDSKNTLYLQMNSLKTEDTAVYSCTTDGFIMIRGVSEDYYYYYMDVWGKGTTVTVSS
VL: QSVLTQPPSVSAAPGQKVTISCSGSSSNIGNNYVLWYQQFPGTAPKLLIYGNNKRPSGIPDRFSGSKSGTSATLGITGLQTGDEADYFCATWDSGLSADWVFGGGTKLTVL
In the case of B2, the other in test [3] worked out at 4.02 kcal/mol. The same molecule came in with an IC50 of neutralisation of SF162 pseudovirus, TZM-bl cells (luciferase) in test [1] of 68 µM. Besides, the equilibrium dissociation constant (Kd) in test [4] worked out at 3.9 µM.

B3: Fv 447–52D wild type (other, human)
VH: EVQLVESGGGLVKPGGSLRLTCVASGFTFSDVWLNWVRQAPGKGLEWVGRIKSRTDGGTTDYAASVKGRFTISRDDSKNTLYLQMNSLKTEDTAVYSCTTDGFIMIRGVSEDYYYYYMDVWGKGTTVTVSS
VL: QSVLTQPPSVSAAPGQKVTISCSGSSSNIGNNYVLWYQQFPGTAPKLLIYGNNKRPSGIPDRFSGSKSGTSATLGITGLQTGDEADYFCATWDSGLSADWVFGGGTKLTVL
In test [3], B3 showed a dH of -8.54 kcal/mol. In addition, the Kd in test [4] came to 0.023 µM; in test [5], 5.1 µM.

B4: Fv 447–52D Trp^L96Ala (other, human)
VH: EVQLVESGGGLVKPGGSLRLTCVASGFTFSDVWLNWVRQAPGKGLEWVGRIKSRTDGGTTDYAASVKGRFTISRDDSKNTLYLQMNSLKTEDTAVYSCTTDGFIMIRGVSEDYYYYYMDVWGKGTTVTVSS
VL: QSVLTQPPSVSAAPGQKVTISCSGSSSNIGNNYVLWYQQFPGTAPKLLIYGNNKRPSGIPDRFSGSKSGTSATLGITGLQTGDEADYFCATWDSGLSADAVFGGGTKLTVL
The molecule B4 gave an other in test [3] of 1.22 kcal/mol. The molecule further registered an IC50 of neutralisation of SF162 pseudovirus, TZM-bl cells (luciferase) in test [1] of 50 µM. The same molecule yielded a Kd in test [6] of 1.8 µM.

B5: Fv 447–52D Trp^L91Ala (other, human)
VH: EVQLVESGGGLVKPGGSLRLTCVASGFTFSDVWLNWVRQAPGKGLEWVGRIKSRTDGGTTDYAASVKGRFTISRDDSKNTLYLQMNSLKTEDTAVYSCTTDGFIMIRGVSEDYYYYYMDVWGKGTTVTVSS
VL: QSVLTQPPSVSAAPGQKVTISCSGSSSNIGNNYVLWYQQFPGTAPKLLIYGNNKRPSGIPDRFSGSKSGTSATLGITGLQTGDEADYFCATADSGLSADWVFGGGTKLTVL
In test [3], B5 yielded an other of 4.72 kcal/mol. In test [1], the IC50 of neutralisation of SF162 pseudovirus, TZM-bl cells (luciferase) stood at 76 µM. For the same molecule, in the test on SF162 pseudovirus, the “fold decrease in neutralization capability” value came to 4.0 fold. The dissociation constant (Kd) in test [6] came out at 5.4 µM.

B6: Fv 447–52D Asp^H95Asn (other, human)
VH: EVQLVESGGGLVKPGGSLRLTCVASGFTFSDVWLNWVRQAPGKGLEWVGRIKSRTDGGTTDYAASVKGRFTISRDDSKNTLYLQMNSLKTEDTAVYSCTTNGFIMIRGVSEDYYYYYMDVWGKGTTVTVSS
VL: QSVLTQPPSVSAAPGQKVTISCSGSSSNIGNNYVLWYQQFPGTAPKLLIYGNNKRPSGIPDRFSGSKSGTSATLGITGLQTGDEADYFCATWDSGLSADWVFGGGTKLTVL
For B6, in test [3], the other came out at 5.04 kcal/mol. This molecule also had an IC50 of neutralisation of SF162 pseudovirus, TZM-bl cells (luciferase) in test [1] of 41 µM. The Kd in test [4] was determined as 3.9 µM.
